Common to all, as to assay: BLI
In experiment [1] the target is GlcNAc-IgG3 Fc (human IgG3 Fc with a single GlcNAc at N297) (human).
In experiment [2] the target is High mannose (Man8-Man12) glycoform of human IgG3 Fc (human).
In experiment [3] the target is Man5-IgG3 Fc (human IgG3 Fc with the GlcNAc2Man5 glycoform) (human).

In experiment [1], “Fcγ receptor IIIA, high affinity polymorph (V158)” had an equilibrium dissociation constant (Kd) of 506 nM, a koff of 0.0858 s⁻¹ and an association rate constant (kon) of 170000 M⁻¹ s⁻¹. Also, in experiment [2], the Kd was 41.4 nM, the dissociation rate constant (koff) is 0.0065 s⁻¹ and the kon was found to be 160000 M⁻¹ s⁻¹. Besides, the Kd in experiment [3] turned out to be 46.5 nM.

The values are drawn from paper PMC5694352.
